{"source": "paper PMC6288613", "about": "“Mouse REC114 is essential for meiotic DNA double-strand break formation and forms a complex with MEI4” (Life Science Alliance, 2018)", "target": "the molecule itself", "experiment": "SEC-MALS; SEC-MALLS, Superdex 75; 50 ul of purified protein injected at 10, 5 and 2 mg/ml; dimer to monomers, fast exchange"}
{"protein": "Mouse REC114 (15-159) (domain or fragment, UniProt Q9CWH4 15-159, looked up, REC114, mouse, residues 15-159 (PH domain), expressed from pProEXHTb; final crystallographic model includes residues 15-150; A selenomethionine-substituted form was also crystallised for phasing; also called REC114 PH domain; REC114 N-terminal region; source: E. coli BL21-Gold (DE3), purified (Ni2+ resin, TEV cleavage, second Ni2+ column, size-exclusion chromatography)) GEVSQWSLKRYGRFMLLDNVGSPGPSSEAAAAGSPTWKVFESSEESGSLVLTIVVSGHFFISQGQTLLEGFSLIGSKNWLKIVRRMDCLLFGTTIKNKSRMFRVQFSGESKEEALERCCGCVQTLAQYVTVQEPDSTTQELQQSQ", "values": [{"measurement": "stoichiometry N", "result": 2}]}
